Source: article doi:10.1101/2020.01.24.918722

Tests used:
[1] = target: mNrxn1β^+SS4-FLAG (C-terminally FLAG-tagged mouse Nrxn1β containing the SS4 insert) (mouse) (UniProt P0DI97); assay: saturation binding on cells with Scatchard analysis
[2] = target: mNrxn1β^−SS4-FLAG (C-terminally FLAG-tagged mouse Nrxn1β lacking the SS4 insert) (mouse); assay: as above

Sequence of mNrxn1β^+SS4-FLAG (C-terminally FLAG-tagged mouse Nrxn1β containing the SS4 insert) (mouse) (P0DI97 47-468): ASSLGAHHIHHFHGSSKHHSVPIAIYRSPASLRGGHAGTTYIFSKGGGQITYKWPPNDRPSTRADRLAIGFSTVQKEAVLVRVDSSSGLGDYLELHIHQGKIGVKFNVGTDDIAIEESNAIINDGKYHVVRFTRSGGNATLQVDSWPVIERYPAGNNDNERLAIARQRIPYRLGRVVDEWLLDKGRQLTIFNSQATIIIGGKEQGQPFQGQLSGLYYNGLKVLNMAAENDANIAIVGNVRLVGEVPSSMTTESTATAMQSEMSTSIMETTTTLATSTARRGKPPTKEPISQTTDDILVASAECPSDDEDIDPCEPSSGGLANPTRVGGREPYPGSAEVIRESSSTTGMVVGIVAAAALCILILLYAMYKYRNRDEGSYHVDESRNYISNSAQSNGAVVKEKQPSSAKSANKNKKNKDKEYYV

Kd [1]: 51.4 nM
Kd [2]: 106 nM
Substance: Ig-Clstn3 (Ig-fused calsyntenin-3) (from UniProt Q99JH7 20-956) (Fc fusion)
